According to paper PMC6926458:

Tests used:
[1] = target: Fissurella latimarginata hemocyanin, native (Fissurella latimarginata); assay: negative-stain transmission electron microscopy; hemocyanins 0.6 mg/ml on parlodion-coated copper grids, 1-2% uranyl acetate; didecamers, decamers and dissociated structures counted in about 20 images
[2] = target: Concholepas concholepas hemocyanin, native (Concholepas concholepas); assay: as above

Row | Substance | stoichiometry N [1] | stoichiometry N [2]
1 | Fissurella latimarginata hemocyanin, native (natural protein) | 20 | –
2 | Concholepas concholepas hemocyanin, native (complex) | – | 20
